Patent US10919943B2, “Mutant proteins enabling agrochemical control of plant gene expression” (The Regents of the University of California, priority 2016, dated 2021)

System: Arabidopsis
Assay: Overexpression of HAB1^!-2 (35S::GFP-HAB1^!-2) in Arabidopsis, T1 plant phenotype
Format: in vivo
From the text: To investigate the effects of overexpressing HAB1^!-2 in Arabidopsis, we used Agrobacterium mediated transformation to generate 35S::GFP-HAB1^!-2 transgenic plants. HAB1^!-2 was cloned from pACT-HAB1^!-2 into pEGAD, a binary vector suitable for plant transformation, generating a 35S-driven GFP-HAB1^!-2 fusion protein. The clone was transformed into Agrobacterium and the floral dip method used to transform Arabidopsis. After selection of T0 seed on soil containing glufosinate, several T1 seedlings were identified. […] As an alternate strategy, we eliminated HAB1's catalytic activity by introducing a mutation in a conserved metal-ion binding residue (D204), which is homologous to D131A mutation in ABI1, previously shown to eliminate phosphatase activity without disrupting wild type receptor-ABI1 interactions (Liang et al., 2011). We used QuickChange mutagenesis to introduce the D204A mutation into pACT-HAB1^!-2, generating pACT-HAB1^!-3. When tested for mandipropamid induced interactions with pBD-PYR1*^-MANDI, HAB1^!-3 is ˜10-fold less sensitive to mandipropamid relative to HAB1^!-2 (FIG. 5).

B1: HAB1^!-2: HAB1 double mutant V393R, R505A (protein)
chain: MTPAVAMTLSLAANTMCESSPVEITQLKNVTDAADLLSDSENQSFCNGGTECTMEDVSELEEVGEQDLLKTLSDTRSGSSNVFDEDDVLSVVEDNSAVISEGLLVVDAGSELSLSNTAMEIDNGRVLATAIIVGESSIEQVPTAEVLIAGVNQDTNTSEVVIRLPDENSNHLVKGRSVYELDCIPLWGTVSIQGNRSEMEDAFAVSPHFLKLPIKMLMGDHEGMSPSLTHLTGHFFGVYDGHGGHKVADYCRDRLHFALAEEIERIKDELCKRNTGEGRQVQWDKVFTSCFLTVDGEIEGKIGRAVVGSSDKVLEAVASETVGSTAVVALVCSSHIVVSNCGDSRAVLFRGKEAMPLSVDHKPDREDEYARIENAGGKVIQWQGARVFGRLAMSRSIGDRYLKPYVIPEPEVTFMPRSREDECLILASDGLWDVMNNQEVCEIARRRILMWHKKNGAPPLAERGKGIDPACQAAADYLSMLALQKGSKDNISIIVIDLKAQAKFKTRT
modifications: left off: small tags and cut ends
notes: HAB1 double mutant V393R, R505A
phenotype of T1 plants: symptoms of severe ABA insensitivity, including dwarf stature and high sensitivity to water deficit
